Measurements: US20260355328A1, “A complex comprising a cargo and a targeting moiety binding intelectin-1” (Stichting Radboud universitair medisch centrum, priority 2022, published 2026)
“Also recorded” adds a separate entry of the source.

Tests used:
[1] = Biodistribution of full-length lactoferrin, lactoferricin and hLF-6 in LPS-challenged mice (IVIS); assay type: in vivo; details: fluorescent label, i.v., 2 h
Experimental: Lactoferrin and lactoferricin are cloned in an expression plasmid containing the C-terminal Sortase-sequence protein-LPETG-HHHHHH. LPETGHHHHHH is SEQ ID NO: 98. Next, the protein is expressed overnight in E. coli and purified from sonicated bacterial cell lysates by Ni-NTA beads using 400 mM imidazole to elute the proteins. After overnight dialysis, full-length lactoferrin and hLF-6 are labelled by means of a Sortase exchange reaction on the C-terminus with a fluorescent dye (Alexa647 or Cy5.5) for 2 h at 4 °C using a fluorescently labelled donor peptide (formula:biotin-GSSG-LPETG-label or biotin-GSSG-LPETG-PEG40k-label) as substrate GSSGLPETG is SEQ ID NO: 99. Excess donor peptide is removed by means of streptavidin binding of the biotin tag on the N-terminus of the donor peptide. Next, the purified labelled protein/peptide is injected into LPS-challenged mice via intravenous injection in the tail vein. Mice are sacrificed after 2 h, and organs harvested for imaging by IVIS. Biodistribution is quantified for each organ, and relative distribution is shown.

[2] = tested on: ITLN-1; details: intestinal epithelial cells, literature; cited from earlier work
[3] = literature; cited from earlier work
[4] = literature; cited from earlier work; remark: listed apart in the source

B1: full-length lactoferrin: full-length human lactoferrin protein (protein, UniProt P02788 1-710, looked up)
chain: MKLVFLVLLFLGALGLCLAGRRRSVQWCAVSQPEATKCFQWQRNMRKVRGPPVSCIKRDSPIQCIQAIAENRADAVTLDGGFIYEAGLAPYKLRPVAAEVYGTERQPRTHYYAVAVVKKGGSFQLNELQGLKSCHTGLRRTAGWNVPIGTLRPFLNWTGPPEPIEAAVARFFSASCVPGADKGQFPNLCRLCAGTGENKCAFSSQEPYFSYSGAFKCLRDGAGDVAFIRESTVFEDLSDEAERDEYELLCPDNTRKPVDKFKDCHLARVPSHAVVARSVNGKEDAIWNLLRQAQEKFGKDKSPKFQLFGSPSGQKDLLFKDSAIGFSRVPPRIDSGLYLGSGYFTAIQNLRKSEEEVAARRARVVWCAVGEQELRKCNQWSGLSEGSVTCSSASTTEDCIALVLKGEADAMSLDGGYVYTAGKCGLVPVLAENYKSQQSSDPDPNCVDRPVEGYLAVAVVRRSDTSLTWNSVKGKKSCHTAVDRTAGWNIPMGLLFNQTGSCKFDEYFSQSCAPGSDPRSNLCALCIGDEQGENKCVPNSNERYYGYTGAFRCLAENAGDVAFVKDVTVLQNTDGNNNEAWAKDLKLADFALLCLDGKRKPVTEARSCHLAMAPNHAVVSRMDKVERLKQVLLHQQAKFGRNGSDCPDKFCLFQSETKNLLFNDNTECLARLHGKTTYEKYLGPQYVAGITNLKKCSTSPLLEACEFLRK
modifications: full-length
notes: full-length human lactoferrin protein
- bio-distribution [1]: accumulation predominantly in liver and spleen and less in kidney, brain and intestine
- uptake upon overexpression of ITLN-1 [2]: increases uptake of lactoferrin in endosomes
- biodistribution of radioactive-labelled full-length protein [3]: comprise multiple organs and not primarily the kidney; also recorded: distribution to many organs
- ribonuclease activity [4]: pyrimidine-specific ribonuclease activity
